In this experiment the target is KRAS-G12V8-16 peptide (…) presented by HLA-A11 (human). Nature of the experiment: cell-based or functional assay.

Some results are limits rather than exact numbers.

Results on one molecule are retold here after patent US20250152717A1.

B1: TCR 11N4A (TCR)
TCR alpha: QQKNDDQQVKQNSPSLSVQEGRISILNCDYTNSMFDYFLWYKKYPAEGPTFLISISSIKDKNEDGRFTVFLNKSAKHLSLHIVPSQPGDSAVYFCAASGVSGNTPLVFGKGTRLSVIANIQNPDPAVYQLRDSKSSDKSVCLFTDFDSQTNVSQSKDSDVYITDKCVLDMRSMDFKSNSAVAWSNKSDFACANAFNNSIIPEDTFFPSPESSCDVKLVEKSFETDTNLNFQNLSVIGFRILLLKVAGFNLLMTLRLWSS
TCR beta: GVTQTPRYLIKTRGQQVTLSCSPISGHRSVSWYQQTPGQGLQFLFEYFSETQRNKGNFPGRFSGRQFSNSRSEMNVSTLELGDSALYLCASSVGTVEQYFGPGTRLTVTEDLKNVFPPEVAVFEPSEAEISHTQKATLVCLATGFYPDHVELSWWVNGKEVHSGVCTDPQPLKEQPALNDSRYCLSSRLRVSATFWQNPRNHFRCQVQFYGLSENDEWTQDRAKPVTQIVSAEAWGRADCGFTSESYQQGVLSATILYEILLGKATLYAVLVSALVLMAMVKRKDSRG
The molecule B1 came in with a percent of TCR 11N4A-transduced T cells responding (CD137) to peptide above 80%.
